The text below walks through data of patent publication US20100291682, “SYSTEM FOR TRANSPOSING HYPERACTIVE RECOMBINANT DERIVATIVES OF MOS-1 TRANSPOSON” (published 2010).

One data set addresses T1, Mos-1 transposase FTY (Drosophila mauritiana, UniProt Q7JQ07 SEQ:1-345, F53Y,T216A,Y237C).
T1 sequence: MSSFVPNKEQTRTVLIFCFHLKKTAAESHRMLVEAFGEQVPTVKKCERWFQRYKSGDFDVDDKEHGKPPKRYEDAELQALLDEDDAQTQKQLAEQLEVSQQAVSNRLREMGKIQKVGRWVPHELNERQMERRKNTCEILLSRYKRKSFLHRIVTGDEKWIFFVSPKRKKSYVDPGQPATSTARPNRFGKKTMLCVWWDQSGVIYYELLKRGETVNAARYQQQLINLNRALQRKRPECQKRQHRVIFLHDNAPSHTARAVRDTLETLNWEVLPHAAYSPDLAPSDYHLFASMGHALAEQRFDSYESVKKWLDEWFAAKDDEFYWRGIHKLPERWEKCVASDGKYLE
Nature of the data set: cell_activity; 3T46 transposition in E. coli T5 vs 3T3/WT. As to conditions: chain copies: 2. Here is the method:
(§1) Escherichia coli JM109 bacteria were co-transformed with the pBC 3T3 plasmid (comprising a transposition reporter 2 ITR 3′ mariner-like element and the chloramphenicol resistance gene) and with the inducible vector encoding for the transposase (pKK-Tnp or pMal-Tnp) comprising the ampicillin resistance gene. The bacteria selection was performed on ampicillin (100 μg/ml) and chloramphenicol in order to verify the presence of the two plasmids.
(§2) The JM109 bacteria containing both the pBC 3T3 plasmid and the pKK-Tnp (or pMalC2X-Tnp) plasmid were placed in culture for 1 hr at 37° C. in 250 μl of LB. This inoculum was then poured into 5 ml of LB supplemented with 1 mM IPTG. The culture was titrated on LB plates (100 μl of a 1/1000 dilution) and on LB-Tet plates (12.5 μg/ml) (250 μl of the non-diluted culture). The culture induced by IPTG was then cultured for 5 hours at 32° C. (optimal temperature of transposase) under stirring (250 rpm). The bacterial suspension was then titrated on LB plates (100 μl of a 1/250,000 dilution) and on LB-tet plates (100 μl of the undiluted bacterial suspension). The plates were placed at 37° C. overnight. The following day, the colonies were counted on LB and LB-Tet plates, and the transposition frequency (equal to the number of tetracycline bacteria over the number of bacterial per 1 ml of undiluted bacterial suspension) was calculated.
(§3) In order to evaluate the transposition efficiency of systems associating a hyperactive transposase and a pseudo-transposon that is also hyperactive, various combinations were tested in the transposition test in bacteria described in part I, paragraph I-B above.

In the next data set the target is T2, Mos-1 transposase QY (Drosophila mauritiana, UniProt Q7JQ07 SEQ:1-345, Q91R,Y237C).
T2 sequence: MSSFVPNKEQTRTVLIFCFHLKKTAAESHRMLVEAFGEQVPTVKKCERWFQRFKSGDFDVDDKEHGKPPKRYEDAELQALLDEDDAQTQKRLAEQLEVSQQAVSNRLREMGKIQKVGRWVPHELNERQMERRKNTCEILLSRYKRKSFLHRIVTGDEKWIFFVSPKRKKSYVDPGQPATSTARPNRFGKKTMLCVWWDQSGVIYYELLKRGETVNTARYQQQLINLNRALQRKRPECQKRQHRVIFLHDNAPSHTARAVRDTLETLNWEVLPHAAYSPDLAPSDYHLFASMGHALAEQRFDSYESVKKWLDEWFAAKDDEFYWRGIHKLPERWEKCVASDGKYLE
Described as above. As to conditions: chain copies: 2. The protocol:
as §1, §2, §3

Another data set deals with T3, Mos-1 transposase FQ (Drosophila mauritiana, UniProt Q7JQ07 SEQ:1-345, F53Y,Q91R).
T3 sequence: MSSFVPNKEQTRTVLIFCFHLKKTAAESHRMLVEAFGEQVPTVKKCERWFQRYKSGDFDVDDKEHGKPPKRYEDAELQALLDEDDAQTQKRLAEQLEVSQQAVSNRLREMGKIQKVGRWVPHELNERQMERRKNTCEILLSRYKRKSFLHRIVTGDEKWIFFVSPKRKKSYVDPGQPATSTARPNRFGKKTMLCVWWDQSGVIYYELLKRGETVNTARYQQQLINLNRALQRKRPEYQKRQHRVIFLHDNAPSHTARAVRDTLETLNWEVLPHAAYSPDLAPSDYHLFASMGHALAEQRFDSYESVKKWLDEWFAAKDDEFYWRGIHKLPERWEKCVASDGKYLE
The description is as above. As to conditions: chain copies: 2. The protocol: as §1, §2, §3

The target of data set [1] is T4, MBP-Mos-1 transposase (MBP-Tnp) (Drosophila mauritiana, UniProt Q7JQ07 SEQ:1-345).
T4 sequence: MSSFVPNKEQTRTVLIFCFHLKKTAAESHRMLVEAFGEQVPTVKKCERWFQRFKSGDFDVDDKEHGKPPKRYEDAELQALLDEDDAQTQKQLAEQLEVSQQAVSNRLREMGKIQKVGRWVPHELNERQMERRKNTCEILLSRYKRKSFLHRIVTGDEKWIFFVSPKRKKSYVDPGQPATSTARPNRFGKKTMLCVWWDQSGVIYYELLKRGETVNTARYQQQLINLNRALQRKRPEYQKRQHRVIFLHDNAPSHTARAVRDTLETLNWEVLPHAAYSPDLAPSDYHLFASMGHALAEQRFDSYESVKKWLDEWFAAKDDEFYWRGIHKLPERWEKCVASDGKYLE
Nature of the data set: EMSA; 5 mM MgCl2, 4 C. As to conditions: tags: N-terminal MBP (pMalC2x); chain copies: 2. Here is the method:
The sequences inducing a delay in migration after incubation with Tnp (positive ITRs) were subjected to a further gel retardation with a purified DNA fragment. The ITR/protein complexes were formed in a final volume of 20 μl containing: 40 μg of MBP-Tnp protein, 1 nM of ITR probe, 1 μg of salmon sperm DNA, 2 μl of 50% glycerol, 5 mM of MgCl₂ and 0.5 μM of pRev. The ITRs only were used at a final concentration of 1 nM in a mixture containing 2 μl of 50% glycerol and 17 μl of buffer. The interaction reactions were maintained for 15 minutes at 4° C. before being analysed on polyacrylamide gel.

B1: ITR46 (dsDNA)
DNA 1: TCAGGTGTACAAGTATGAGATGTCGTTT
DNA 2: AAACGACATCTCATACTTGTACACCTGA
As to B1, the activity in the data set with Mos-1 transposase FTY stood at 19.4 fold; with Mos-1 transposase QY, 1.7 fold; with Mos-1 transposase FQ, 3.3 fold. For the same molecule, the binding result in data set [1] is “binds”.
